{
  "source": "paper PMC3189933",
  "about": "“Acylpeptide Hydrolase Inhibition as Targeted Strategy to Induce Proteasomal Down-Regulation” (PLoS ONE, 2011)",
  "key": {"[1]": {"biological_target": "T1, Porcine liver acylpeptide hydrolase (porcine, UniProt P19205 1-732)", "T1 sequence (looked up)": "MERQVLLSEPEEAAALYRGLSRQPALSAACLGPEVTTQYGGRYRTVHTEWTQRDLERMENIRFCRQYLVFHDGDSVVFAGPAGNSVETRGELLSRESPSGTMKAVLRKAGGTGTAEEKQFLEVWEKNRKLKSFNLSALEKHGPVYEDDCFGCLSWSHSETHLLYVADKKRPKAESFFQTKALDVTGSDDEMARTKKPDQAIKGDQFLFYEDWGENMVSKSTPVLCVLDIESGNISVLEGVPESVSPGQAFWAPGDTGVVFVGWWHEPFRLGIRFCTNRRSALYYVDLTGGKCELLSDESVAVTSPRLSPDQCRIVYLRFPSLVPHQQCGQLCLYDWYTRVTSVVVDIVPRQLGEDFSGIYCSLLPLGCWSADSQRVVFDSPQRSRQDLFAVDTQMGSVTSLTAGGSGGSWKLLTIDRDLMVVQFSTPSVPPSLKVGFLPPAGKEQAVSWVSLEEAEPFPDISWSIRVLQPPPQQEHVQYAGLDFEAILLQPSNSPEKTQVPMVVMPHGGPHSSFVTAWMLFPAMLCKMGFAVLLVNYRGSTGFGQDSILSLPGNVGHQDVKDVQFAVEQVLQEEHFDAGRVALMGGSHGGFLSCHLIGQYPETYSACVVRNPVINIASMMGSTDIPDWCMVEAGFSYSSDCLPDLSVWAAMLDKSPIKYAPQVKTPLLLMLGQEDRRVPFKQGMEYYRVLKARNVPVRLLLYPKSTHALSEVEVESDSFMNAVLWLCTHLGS", "assay": "cell-based or functional assay"}, "Bovine α-chymotrypsin": {"biological_target": "Bovine α-chymotrypsin (bovine)", "assay": "cell-based or functional assay"}, "[2]": {"biological_target": "T1, Porcine liver acylpeptide hydrolase", "assay": "enzyme inhibition kinetics (Lineweaver-Burk); porcine APEH (0.5 nM in the legend; 3-5 nM in the methods) pre-incubated with 100 or 150 µM SsCEI 4 for 30 min at 37°C, 50 mM Tris-HCl pH 7.5, substrate acetyl-Ala-pNA; competitive inhibition", "settings": "both partners purified"}},
  "data": [
    {"binder": "H-TILLEIKNINAD-NH2", "note": "[SsCEI 2]", "values": [
      {"measurement": "IC50 of inhibition of porcine APEH activity (substrate Ac-Ala-pNA)", "setting": "[1]", "result": 142, "unit": "µM"},
      {"measurement": "IC50 of inhibition of bovine α-chymotrypsin activity", "setting": "Bovine α-chymotrypsin", "result": 21.9, "unit": "µM"}
    ]},
    {"binder": "H-TILAEIKNINAD-NH2 (As SsCEI 2 with Ala at P1; also called S4; source: synthetic peptide (solid-phase Fmoc/tBu synthesis, purified by reverse-phase HPLC))", "note": "[SsCEI 4]", "values": [
      {"measurement": "IC50 of inhibition of porcine APEH activity (substrate Ac-Ala-pNA)", "setting": "[1]", "result": 84, "unit": "µM"},
      {"measurement": "Ki", "setting": "[2]", "result": 4, "unit": "µM"}
    ]}
  ]
}
